This note sets out measurements from patent US20240261378.

The data set concerns the target TRIM16 GST-fusion protein (substrate of the ULK1 kinase assay).

B1: Flag-ULK1 wt (protein)
chain: MEPGRGGTETVGKFEFSRKDLIGHGAFAVVFKGRHREKHDLEVAVKCINKKNLAKSQTLLGKEIKILKELKHENIVALYDFQEMANSVYLVMEYCNGGDLADYLHAMRTLSEDTIRLFLQQIAGAMRLLHSKGIIHRDLKPQNILLSNPAGRRANPNSIRVKIADFGFARYLQSNMMAATLCGSPMYMAPEVIMSQHYDGKADLWSIGTIVYQCLTGKAPFQASSPQDLRLFYEKNKTLVPTIPRETSAPLRQLLLALLQRNHKDRMDFDEFFHHPFLDASPSVRKSPPVPVPSYPSSGSGSSSSSSSTSHLASPPSLGEMQQLQKTLASPADTAGFLHSSRDSGGSKDSSCDTDDFVMVPAQFPGDLVAEAPSAKPPPDSLMCSGSSLVASAGLESHGRTPSPSPPCSSSPSPSGRAGPFSSSRCGASVPIPVPTQVQNYQRIERNLQSPTQFQTPRSSAIRRSGSTSPLGFARASPSPPAHAEHGGVLARKMSLGGGRPYTPSPQVGTIPERPGWSGTPSPQGAEMRGGRSPRPGSSAPEHSPRTSGLGCRLHSAPNLSDLHVVRPKLPKPPTDPLGAVFSPPQASPPQPSHGLQSCRNLRGSPKLPDFLQRNPLPPILGSPTKAVPSFDFPKTPSSQNLLALLARQGVVMTPPRNRTLPDLSEVGPFHGQPLGPGLRPGEDPKGPFGRSFSTSRLTDLLLKAAFGTQAPDPGSTESLQEKPMEIAPSAGFGGSLHPGARAGGTSSPSPVVFTVGSPPSGSTPPQGPRTRMFSAGPTGSASSSARHLVPGPCSEAPAPELPAPGHGCSFADPITANLEGAVTFEAPDLPEETLMEQEHTEILRGLRFTLLFVQHVLEIAALKGSASEAAGGPEYQLQESVVADQISLLSREWGFAEQLVLYLKVAELLSSGLQSAIDQIRAGKLCLSSTVKQVVRRLNELYKASVVSCQGLSLRLQRFFLDKQRLLDRIHSITAERLIFSHAVQMVQSAALDEMFQHREGCVPRYHKALLLLEGLQHMLSDQADIENVTKCKLCIERRLSALLTGICA
Turning to B1, the “in vitro phosphorylation (γ32P ATP, autoradiography), wt vs kinase-dead K46I ULK1” value is given as “comparing active vs. kinase dead ULK1 we established that TRIM16 was a substrate for ULK1 phosphorylation”.
